In the DeepSol protein solubility set:

Experiment: soluble on expression in E. coli; label from the status in PepcDB or PDB records

Sequence | soluble on expression in E. coli
EDPLAKKQTVRLIKDLQRAINKVLCTRLRLSNFFTIDHFIQKLHTARKILVLTGAGVSTSLGIPDFRSSEGFYSKIKHLGLDDPQDVFNYNIFMHDPSVFYNIANMVLPPEKIYSPLHSFIKMLQMKGKLLRNYTQNIDNLESYAGISTDKLVQCHGSFATATCVTCHWNLPGERIFNKIRNLELPLCPYCYKKRREYFPEGYNNKVGVAASQGSMSERPPYILNSYGVLKPDITFFGEALPNKFHKSIREDILECDLLICIGTSLKVAPVSEIVNMVPSHVPQVLINRDPVKHAEFDLSLLGYCDDIAAMVAQKCGWTIPHKKWNDLKNKNFKCQEKDKGVYVVTSDEHPKTL | soluble
GAMGDPGLVSAYGAGLEGGVTGNPAEFVVNTSNAGAGALSVTIDGPSKVKMDCQECPEGYRVTYTPMAPGSYLISIKYGGPYHIGGSPFKAKVTGPRLV | soluble
MSLSISEKPLSELLRPKDFEDFVGQDHIFGNKGILRRTLKTGNMFSSILYGPPGSGKTSVFSLLKRYFNGEVVYLSSTVHGVSEIKNVLKRGEQLRKYGKKLLLFLDEIHRLNKNQQMVLVSHVERGDIVLVATTTENPSFVIVPALLSRCRILYFKKLSDEDLMKILKKATEVLNIDLEESVEKAIVRHSEGDARKLLNTLEIVHQAFKNKRVTLEDLETLLGNVSGYTKESHYDFASAFIKSMRGSDPNAAVYYLVKMIEMGEDPRFIARRMIIFASEDVGLADPNALHIAVSTSIAVEHVGLPECLMNLVECAVYLSLAPKSNSVYLAMKKVQELPVEDVPLFLRNPVTEEMKKRGYGEGYLYPHDFGGFVKTNYLPEKLKNEVIFQPKRVGFEEELFERLRKLWPEKYGGESMAEVRKELEYKGKKIRIVKGDITREEVDAIVNAANEYLKHGGGVAGAIVRAGGSVIQEESDRIVQERGRVPTGEAVVTSAGKLKAKYVIHTVGPVWRGGSHGEDELLYKAVYNALLRAHELKLKSISMPAISTGIFGFPKERAVGIFSKAIRDFIDQHPDTTLEEIRICNIDEETTKIFEEKFSEGHHHHHH | soluble
MGSDKIHHHHHHMSRFTYAYMMMTRLETLKNNLQAAFGQDLALTESLGELTLEVAAEQWFSACTKLRTDPALRFESCIDLCGVDYLTWGNGTQPEEKTGPVTHGRYAVVVHLLSIEHNWRLRVRTWAPDDEFPMVSSLLECWPGVNWFEREAFDLYGIVFEGHPDLRRILTDYGFIGHPFRKDFPLSGTVEMRYDPEQKRVIYQPVTIDPREITPRVVREGSYGMGR | not soluble
MEPPLTVGAWTMTADSTVTEPIAAAATTTIVADVAIVGGGLAGSLAAAVLARAGHRVALVDKRAVYPDEFRVEKIGGPQLEMFRRLGFIRGLASVACPYDQVLNVREGKVVDVSVGQAYGLPYAGLVAMARGQIPDPSSLIVDEVTAVTCSDDVQHLELASGRRLNARLVVLATGMAGALGYKLGIRRRVLAAGHSVSFGFTIVRRDGTPFDFKALTCYGERTSDGVDYLSLFPVPAGMRANLFMFRDPTDPVMRDLRRDTEATVLRLLPGLQPYLGDFRVTDRVQNWVMDLSVVEGHLQPGVVLIGDAFQTNCPAAGTGVARLLVDVERLCTEYAPRWLATEGMGKEKISEFYSDRDKIAADQQSLKMARFRQALTSRDDISWDVRRRLHFLRRSITHRVDQMRPGWLAQVRSALRALEHHHHHH | not soluble
MATCGRRDDILDLLKSLEQQTYKNFELIVVDQNDTPISDLFDEYKDKFSINYIYTPIKGLSRARNAGLKVADGDFIAFPDDDCIYEKNVLESILETFNSNKDVHFISTNTTNVEGTGSLIHAPNTDIILNNKYGFMGPSFTLFFTKQFVQDVGTFDEDLGVGSGTIYGAGEETDFVLRGMKQNYTGLFRKDLFVYHPVKEEIINEQSLKRAISYAGGFGRIIRLHYGFPYFLRAVAAATFRMTQNISNDKRKFHANRLRGIVRGYLK | not soluble
MNALIVPQWPLPKGVAACSSTRIGGVSLSPYDSLNLGAHCGDNPEHVEENRKRLFAAGNLPSKPVWLEQVHGKNVLRLTGEPYASKRADASYSNTPGTVCAVMTADCLPVLFCNREGTEVAAAHAGWRGLCEGVLEETVTCFADKPENIIAWLGPAIGPAAFEVGPEVRDAFLAKDAQADSAFLPHGEKFLADIYQLARQRLANTGVEHVYGGDRCTFSESETFFSYRRDKTTGRMASFIWLI | soluble
MGSDKIHHHHHHMGFVSTTFDVLIIGAGPSGASAAVHAARTGLQTLLIDASSFPRDKTCGDGLTPRAIHQLELLGVADQVTGDYFNKGLKLHGFGGSVEAPWPETYFTNKGSAMSRMEFDDLLFRLAKSHEEVTTWENASAQDPILRGNFLEGVVINHAGQEKTVKAKHVIIADGVRSPFGKKLGRQWQRDEVYGIAARAYCETPLSDEPWIHSHVELRDEDGVVQPGYGWIFPLGNGTVNLGCGALSTDTRPAKINTKKLLSFYAGQRRKAWQLGPEHDVASALLPMGGAVSNVAGANWMLIGDSAACVNPLNGEGIDYGLETAAMAVDTLVENPKRDLTLVWPHRLRDAYGETFMLARTAARLLTYPQFLPMAGPLAFRGPLQKAIMPAAARLMGNLITEEDKDLLARGWQAAGSAISWARKGSPLWDSTSSLV | not soluble
MAHHHHHHMKKPEHVRNIVYEIKRKVQIPVSVKIRTGVDDCDSFPFLRSFIECVSSVGCTHFIVHARKAWLKGLDPKQNRSVPPLQYSKVYTLCQLYPHLKFTLNGGIKTIEEAVALLNGYLPREDKCDGEKTYVQVQNYHVNPLNGVMLGRACMENTTVLSQTDQLVYNEKPPHTAFSRRTVLDAYKSYLEENSSLCSLSSAFELLKPILGILKGMPGHRIFRNKVDMYIRNYSSTLPCSGILEKAMVDVDAVAPGCLDLPLADYKLQQEYIKNY | not soluble
MGSDKIHHHHHHMKLPTNSILISLKIGIVSDGQYGERAFEQIRRRFPTEWILLPYPSSPVVDEIELTIPPCDLYISYLRHPDIAMELIRTGIPALLGINLGPGFIAQAHEFNPAVIGPETMCSVLPNTKFCQVNEYAKVFGRPVFYLVMDGDRIVWCKTIRGSPCGSTDAAASEISGQILDQEALSRFALSICHNCRAPRFGKTCDKEKAGIIHLEELMRALKGVNPKKWEELIQVLEKIGCSFPNE | not soluble
MGPYFGKVSEVSSNSQTTYLPESADATQVQEQLGDFTDSESIPAIVVMVSDEPLTQQDITQLNEVVAGLSELDIVSDEVSPAIPSEDGRAVQVFVPLNPSAELTESVEKLSETLTQQTPDYVSTYVTGPAGFTADLSALEHHHHHH | not soluble
MSLEDCRISRVELYALADENAPPIPWADNQEPLLYTNNIVRLFTEDGTEGLGATMSYTENFFDRCIIESLRTIVPGLIGKNPLMTQELNNWLGARCTWGGLPAKSPIDIAAWDIKGKKAGMPLYMLLGGARTKIKSYASTPMFDTVEEYFPYIDDCIEHGFTAIKLHCYCVYDKDVALVEAVEAKYGTSGIRFMLDTAGFYTPEQAMKMAKWMERHNWEWLEAPVSDYDFKTYQRLVANTDLEISSHGNCLLTLQEVTHALSTGMWSDVRQDATVCGGITQLNKCFAIAAGHSKNLEIQSMGYTLTQAANLHVALAHDNCNFFEQFYPYEAFELASKTQIRTDKEGYVHAPAGNGLGVEMDWDAVKEASFASYVFEEGHHHHHH | soluble
MRIVSLCPSNTELLAYLGRLDDVAAVDDSSDWPPEVKQLPKVGPDLHIDMDQVEALKPDLVVASLSVPGMERNVKELKRRGLPHLVLAPNSLDDIANDLLRLGEALGETKKAAELVRRYHDVLDWHRERAASAEPARLYWEWWPRPVFTPGGANWLSELSELAGGRNIFSDIPQASVQTEWDDVLARNPSHILLVWVGVQTKKMSPKAVTARPNAQQAEAVRTGNIHILEESLYCRPSPRLLVGLKKLAPLLHPALFPPADDSDPLLGG | not soluble
MNGWNFQELKETPSQTGGPYVHIGLLPKQANIEVFEHNLDNNLVQDNTQGQRIRLEGQVFDGLSLPLRDVLIEIWQADTNGVYPSQADTQGKQVDPNFLGWGRTGADFGTGFWSFNTIKPGAVPGRKGSTQAPHISLIIFARGINIGLHTRVYFDDEAEANAKDPVLNSIEWATRRQTLVAKREERDGEVVYRFDIRIQGENETVFFDI | soluble
MGSDKIHHHHHHMAATFLDIAITPDVMDVQHEMGSDSLWQTPRSRRQADRFGDSEAGMIATRDSFYLATVSQSGWPYIQHRGGPPGFLHLLDDITLAMADFGGNRQYITTGNLRGSDRACLFLMDYPRRARLKIYATVEVLAAEDHPQLLAQVAPANYRARIERLFLFHLQAFDWNCPQHITPRYSAQQVAEYSQNLQQRIHDLEQENQRLQQQLARRGE | not soluble
QVRQSPQSLTVWEGETTILNCSYEDSTFDYFPWYRQFPGKSPALLIAISLVSNKKEDGRFTIFFNKREKKLSLHITDSQPGDSATYFCAATGSFNKLTFGAGTRLAVSPY | soluble
MSLRSYDGQLVYNPVEENGVMVGQTVYKMNGSTLANYMKYNYKYDDNKRMIESETLKWNSTKEEWEKDLRINYTYEGKTVTTNYYKWNNKKRAYVLVPEMTVTMDNTNEGHHHHHH | soluble
MGSDKIHHHHHHMFVMLAMANVTTSAPRAVAPAYDPRLVRAAVAMNENDLPTAEPLLRALLKDDPFDVRAIRLFAELAGRIGRYQDAENLLRRAIELAPQFTAARANLALVLYRTNRAPEALEELAKVTADDPENVGHANLQAAAYGRIGEFDEALALYEQVLKQAAAQPRVWMSYGHMLKTVGRQADGVAAYRRAIELLPTLGEAWWSLANLKTVRFDDADIAAMEAALRVPDLAPEDQWHLDFALGKAFEDRGEAERSFRHYAAGNALRKKRMPYQAEEITAQVDRAVAAFTPATVAGLSGKGCEAGDPIFVLGMPRAGSTLVEQILASHSMVEGTSELADIGYLARTVEGYPAGLSSLQGNDLRALGEQYLARTRIQRHTDRPLFVDKMPNNWIHVPFIRAILPNAKIVDARRHPLSCCFSNFKQHFARGQGFSYSLEDMGRYYRDYVRAMAHFDKVIPGAVHRVIYERMVEDTEAEVRALLAYCGLAFEDNCLAFHRTERAVRTASSEQVRQPIFRDGTDAWKAFEPWLGELKVALGAVQDFYPEAPPFD | not soluble
MSKVKGDLEKSDKRPPSSMSTGSADSGVFSSGVHASSPSHSQGSSSQSGPPSPTTQLNSLLFETANLIAVNEQLRKEIAENKQIQTNQMRALRYSSNPVDQPFVANSISPHHGFPQRPPRGERRMQKPESYKTVICQAWLESKTCTFAENCRFAHGEEELRPAKLESRQNNKYKTKLCDKYTTTGLCPYGKRCLFIHPDNQPNAYIRADKLYEVSQRHALADLRDHVESQIMTGNTRNSYNQQPPPMGGLEMQSSPMKSSSDSSHMRSPMAQMNCETTRPHPSWPLESSSFFLPPEMSSINNNNLMSPFETPFPNGSTGIQPHFVTAKRRAAFPPVPSNFQQDDDNMSSIPGFDHLAEDMAKHLELW | not soluble
MGSDKIHHHHHHMIDSIRVEGFRGLKELELSSLRRINVIVGRNNSGKSTLLEALSLFLGSSDPGTFGNVLHEILIWRGWYGIQTVDDLFYNGGDSFSISSTGKTLEALNSKHSLEFKLNGEPFYKIDRESIRRLASQAVLLARFSPKENFEFLTPLTFRRFGYAESLYSYAYERKVVKDSIKVLNEAYPEVEGFSPLLKEDNWVLYVETKYGVYPYYLMGEGFKSAMIISFLSSLLRDGVLLIDSAEAFHHPKSLKVMIQTLVRGSEKNNVQVFLTTHSLELLDLMLEMGRDGFVIYMKNVEGRIEVESIEFQRASELRESIGVDLRGF | not soluble
